The data set in a line: soluble on expression in E. coli; label from the status in PepcDB or PDB records.
For “MGSDKIHHHHHHMWIRTHYFMAKSIHSYIKEKYKVSLQLDQLQYGSIKPDLLPKYWEGSHYYESCSGTWLAEVAQLLGEQKKRSIRNFSDKLGVILHFTADFFCSAHNLPNLRENMWEHLLYELKLDVAFRHFESFRGIQCLNYDDPYDLLTCCRQDYLSGQPSLERDIHYIYAASLSITDLLVTQALLPVAKPLMLLKDLPESS”, the “soluble on expression in E. coli” value is listed as “not soluble”.
With “MRGSHHHHHHTDPALRAKKIAIVGAGPTGIYTLFSLLQQQTPLSISIFEQADEAGVGMPYSDEENSKMMLANIASIEIPPIYCTYLEWLQKQEDSHLQRYGVKKETLHDRQFLPRILLGEYFRDQFLRLVDQARQQKFAVAVYESCQVTDLQITNAGVMLATNQDLPSETFDLAVIATGHVWPDEEEATRTYFPSPWSGLMEAKVDACNVGIMGTSLSGLDAAMAVAIQHGSFIEDDKQHVVFHRDNASEKLNITLLSRTGILPEADFYCPIPYEPLHIVTDQALNAEIQKGEEGLLDRVFRLIVEEIKFADPDWSQRIALESLNVDSFAQAWFAERKQRDPFDWAEKNLQEVERNKREKHTVPWRYVILRLHEAVQEIVPHLNEHDHKRFSKGLARVFIDNYAAIPSESIRRLLALREAGIIHILALGEDYKMEINESRTVLKTEDNSYSFDVFIDARGQRPLKVKDIPFPGLREQLQKTGDEIPDVGEDYTLQQPEDIRGRVAFGALPWLMHDQPFVQGLTACAEIGEAMARAVVKPASRARRRLSFDGLCGR” the entry was “soluble”; with “MSLKYLVMNAGRLFLSLLKESGVNKIFIVSGTDYASLIEAKVEDSSLPEFEIVPHEITAISTAIGYALGNKLSAVAVHTTPGTANALGGIMSAFTSRIPLLVIAGRSPYTEKGNTASRNLRIHWTQEARDQGELVRQYVKYDFEIRMADQLPAVVSRAIQIMMSEPRGPVYIVLPREVSIQEVNEARRIPMDYYEPAPSPDKINKAKEMLEKSERPLIITWRAGRRKEWFESLRRFADNYNIPVLNYAGEVLNYPSSGPMALDRFDLRNSDLLLVVEAEVPYFPKKIDLDIPIVKIDVDPSYSYIPYYGFRCDLCIQSTPSNFFDYISIRPKSYDEIKELRAKQEEYKKQEIERLKDKKPIHPKYLSYEIGIVASEYNLVIFNEYQFNPRYARLNEFGSYFADLSVGYLGFALGAGVGYKIATNKDVLITTGDGSFIFGVPEAFYYVASKYPTMVVIYDNGGWLASAEAVDEVFPEGLAKSKKYYPGADFDRRFEIGKTVETFHGYYELVEDPWEIKPALIRGLEKMRRENKIAVIQVIVDKVREGHHHHHH”, “not soluble”; with “MLLKSIHHIAIICSDYEKSKAFYVHKLGFQVIQETYREERGSYKLDLSLNGSYVIELFSFPDPPERQTRPEAAGLRHLAFTVGSLDKAVQELHEKGIETEPIRTDPLTGKRFTFFFDPDQLPLELYEQ”, “not soluble”.
With “QSGHTKKINDKEMLDYKGRIPVGTLTLKFDQPVKDPILDFSGLGGYNIFSAHHEEASHEGIRNWEVRNGKIVVTGESASVVGAQINDQIRGSFNHTDLELETPGVKLVELAKNSNLKVDDRSISTVAANNDYVCNTPNDYQTLPEELENGPSYEQNDAFLSPVMKPAGCGSVLAQGEFSELKFTLFSSVEPMSSFAHDTHKTGLLYFAGGVNGGNANPVTPIPMLEGYSKPQEVSDTSNGDLFRMSIRLPEEPVKGSVSVGDFVWIDKDADGRQDDNEPGLAGVKLWLYGPDGGPVTDVHGKVVKSVTTGEDGKYSFKDLPVLTGSDSYTVKVVDVPAGYKPTLSGTGKVPAFKDSSTDLAKSTPGALSENGAQDLTLDFGFVKESATPSDPTVPGFK” the entry was “not soluble”; with “MKVYYECAPCFLRQAREAIDLATDDEELKLRVMENILELLSERFRRGQVSNELGTRMHRLIKDMTGSEDPYLDEKRRCNEIALRFLPTVRDYLECHSDLESHVKVAITGNIIDFGALGLDFDHDRGIQESLRAPLTINHVPLLEDRLREASEVLYLLDNTGEILFDRPLIEKLAGYDVSVKVAVKGEPILNDACMEDALEAGLDEVAEIVTTGTDSVGIVYSDLSDEFRDMLDGTELVIAKGMGNYEGLTEISDGSRDIFCLLNAKCSAIARDLGVARGDNVAVKI”, “not soluble”; with “MATVDPIRYPIGTFQAPQQFEAGEVQEWIAAIRGLPNDLRTAVSGLNDEQLNTPYRDGGWTVAQVVHHLADASMNAFLRTKWGVTEDGPTVKPFAESEWAKTADACSLPIEPSLLLLDGLHARWAALLESMTEADFHRTVRPEGAAGEMPLYVLTALYAWHGKHHTAQVASLRKRKGW”, “not soluble”.
In the case of “MGSDKIHHHHHHMNFEKIEQAYDLLLENVQTIQNQLGTNIYDAMIEQNAAYVANQHETDLVVNNNQTLKQLDLTKEEWRRAYQFLLIKANQTEPMQYNHQFTPDSIGFILSFLVDQLVPTQKVTVLEIGSGTGNLAQTILNASQKDLDYLGIEVDDLLIDLSASIADVMQADISFAQGDAVRPQILKESQVILGDLPIGYYPDDQIASRYQVASPNEHTYAHHLLMEQSLKYLEKDGFAILLAPNDLLTSPQSDLLKGWLQEQANIVAMIALPPNLFGKAAMAKSIFVLQKKAARSLTPFVYPLQSLQEPEAIQKFM”, the “soluble on expression in E. coli” value is “not soluble”.
“GMTESDRDQEASMREVVIVKSTPQRGKFNAFAELVGKLVSETRDFPGCLGAYLMLAPERNEQVVMHIWETPDALEAYLTWRADRGDFLEINEYLEVEQDFKTYQLA”: the “soluble on expression in E. coli” value is “soluble”.
As to “HARKSLTVLVVGESARAENFGILGYGRNTTPNLNKENGLVAFTDVYSCGTETAVSVPCMFSNMGRKNYNATKARNQEGLLDVLKHAGIEVAWRDNQSGCKGTCDRVTFQDVSNLTDPLLCNSHECRDEILLQNLQGFIDSLDKDTVLVLHQMGSHGPEYYKRYPKEFEKFTPVCESNALNNCSRDSIVNAYDNTLLYTDHVLSTLIDLLRSNQAKVDTAMVYLSDHGESLGEYNLFLHGTPYVLAPDQQKHVPMLIWLSDTYQKSFAVTPDCLAKQRNAPLSQDNLFHSMLGLLKVDTKVYDPSLDMFAGCRSELAAADKQ”, the “soluble on expression in E. coli” value is listed as “not soluble”.
The same measure for “MGSDKIHHHHHHMKSCLYFTFIVLFLTACSTKNLTSLHRENLEQKNENQHYVKLEYEQNVNILPQFAYDINFDAKRYKKYFFNPWHDSFKNYKGQNIFWSFPLYLNSKNTYYFFNKQIIPLSWFKNAINNANIQEFGKLNQKALIIQNTIIKNLPTQRAILKNPFFENEGIPFDYASDGILNTGAPVLISHFSKDKRYAFVLGEAGFGFVESKNLEFFSNDRAKIYENLNFITPLKEKFAIYSEDGKFLFESRIGAIYPYYKEDKNYFYGKIGSKKYKISKKDVSKFPLQFNDKNLKNQLSQVLNLPYGWGGYNFERDCSLLTRDIFSAFGLYLPRNSAAQKNSFNHFDISTLSNSQKKDFLNRFGKAYLSLLYLPGHIMLYAGQITDNNIAIHNIWGLRKDATQRLLISSSVITSLEIGKNEILEDNLLLSRLKEISFINLNEQEKEQIKSYLENIQNK”: “not soluble”; for “NEKITKKDALELFSLPIHAVGRIADEIRKVKCGDLVTFVNDTNINYTNICLSKCRFCAFYAREKGYVLSHEEILRKVGYAVKMGATQIMLQGGMNPDLGLEWFEELFRKIKARFSSVHIHSLSPPEIVFLAKLERSSIREVLDRLKAAGLDSLPGGGAEILVDSVRRKISPNKCSSDEWLRVMETAHSLNMPTTATMMFGHVESDGDIVEHLIKIRELQEKTGGFTAFIPWTFQPGNTELYAEIKRPVSPLRYLQVLAISRIVLNNFRNIQASWLTQGFEIATLSLFFGANDFGGTMLEENVVRATGKDFRPAKIEEIVKAVKAVGRPVALR”: “soluble”.
The same measure for “MGSDKIHHHHHHMKDYTYSVTEINEYIKDLIEGDPYLTNVSVYGEISGVRPRKGHIFFSLVEENARLECVIFGGDNMGIRLQEGRMALVEGSVSVYIPHGTYRFICSNVRYLDQAGMYQIKFETTLKKLLEEGLLSRPKKTVPRFPRKIGIITSRDSAALQDVIRTARERKAPIEIYVFHTSVQGDSAREELIKALRKANEYDLDLVMIVRGGGSKEDLWVFNEEDVIREILRLRHPVVTGIGHEIDRVIADFVADVSMHTPTGAAEYVIPDASEIHEDLDSFFEKLITSLSNRFDMEERRLETLYFRLRMIGRRKLELNEFKIERVKELAAKLRKKLMDYFEHNQKKLDSLGRMLESLNPLRPLERGFVLVKKDEKIVKESTDLKRGDVVSLVFKDGTKKAQVIG”: “not soluble”; for “MPLDGEYEPSPTQWVREQVERYESSGGTEGTTLMDTGLPVIVLTTRGARSGKLRKTPLMRVEHEGRYAVVASLGGAPKHPVWYFNVKADPRVELQDGPVKQDMTAREVTGAEKARWWERAVAAYPSYADYQKKTEREIPVFVLEPSHAG”: “not soluble”; for “MEKIERLRSAFDEAGIDGILLTNEHSRRYMANFTGTAGVVLISKKRAQFITDFRYVEQASKQAVGYEIVQHAGLIIDEVAKQVKELGIQKLGFEQDTLTYSSYSAHKEAIDAEFIPTSGLVEKLRLIKTDSEIKILKEAAQIADAAFEHILSFIRPGVSEIEVSNELEFFMRKQGATSSSFDIIVASGLRSALPHGVASEKVIETGDFVTLDFGAYYKGYCSDITRTIAVGEPSDKLKEIYNIVLEAQLRGVNGIKAGLTGREADALTRDYITEKGYGEYFGHSTGHGIGLEIHEAPGLAFRSDTVLEPGMAVTVEPGIYIPGIGGVRIEDDIIVTSEGNEVITKSPKELIIL”: “not soluble”.
The same measure for “MDYNKTAKDILKLLGGEKNVMSAAHCATRLRLVLKNEKEARTKEIEKLDGVKGVFSSSGQYQIIIGQGSVNKVYKAFVEGTGISESSLSDTKKAAMKNM”: “not soluble”; for “DEDDSADNIHAVSSERWRIHAATEIEDINTFFGTEYSSEEADTIGGLVIQELGHLPVRGEKVLIGGLQFTVARADNRRLHTLMATRVK”: “soluble”; for “MAHHHHHHMSQLSASPREEPVGIPELFLQYLKAKDLKDQLAIVRAHPVLFTDDVVAALKDARAQMNETFVEVKETCRVIDAVSGSLQYTGTSVQLQQTVAKELLDEDAILKKFATSLAGLLRARETAGPAAPSTISSLATASRVSSSLGAGKSHSPGAWFTQPSLVFSVLTFLSAEEIFITAENVCRAWQTWLFLPDMSRFFWVGCVQREFPEQLQVLLQTAGDDLYQSDWRSLAMLCVTEGEQAAEAEEAEEAGDGGAVRGVVPFL”: “not soluble”.
As for “MDHHSKAKELLQQRDELDGKIKELMLVLETNNSTMDSPLLDAEGYPLNTIDVYAVRHARHDLICLRNDRAALTEKIVVEMENENKEVSGQTATSEEKPVHRTSNEPFVKISSVVELSPADIGGFRKDDLIIQYGNLHHGNFNDMQEVAQITKQSEDKIIRVTVIRENRPVRLEICPKKWSGPGLLGCNIVPISGANV”, the “soluble on expression in E. coli” value was “not soluble”.
With “SNALQPNMRTRVCTVINNNIAHEWTLARIASELLMSPSLLKKKLREEETSYSQLLTECRMQRALQLIVIHGFSIKRVAVSCGYHSVSYFIYVFRNYYGMTPTEYQERSAQRLSNRDSAAS” the entry was “soluble”.
On to “MGSDKIHHHHHHLDDLSEFVDQVPLLDHHCHFLIDGKVPNRDDRLAQVSTEADKDYPLADTKNRLAYHGFLALAKEFALDANNPLAAMNDPGYATYNHRIFGHFHFKELLIDTGFVPDDPILDLDQTAELVGIPVKAIYRLETHAEDFMLEHDNFAAWWQAFSNDVKQAKAHGFVGFKSIAAYRVGLHLEPVNVIEAAAGFDTWKHSGEKRLTSKPLIDYMLYHVAPFIIAQDMPLQFHVGYGDADTDMYLGNPLLMRDYLKAFTKKGLKVVLLHCYPYHREAGYLASVFPNLYFDISLLDNLGPSGASRVFNEAVELAPYTRILFASDASTYPEMYGLAARQFKQALVAHFNQLPFVDLAQKKAWINAICWQTSAKLYHQERELRV”, for which the “soluble on expression in E. coli” value is given as “not soluble”.

These data come from the DeepSol protein solubility set.
